# Assay results reported in patent US20220041718A1 (AUTOLUS, published 2022).
# How the values were obtained:
# [1] = molecular target: T1, Recombinant purified TRBC2 (human, UniProt A0A5B9 1-129, limits assumed); assay: SPR, IgG captured on anti-human Fc, TRBC2 as analyte
# T1 construct: Construct not described (may be a soluble TCR carrying TRBC2); also called TCR beta constant region 2; soluble recombinant biotinylated TRBC2
# Text: (§1) A series S CM5 sensor chip was immobilised via amine coupling, with an anti-human Fc capture antibody to a density of 9000-10000 RU, using a Biacore T200 instrument. HBS-P+ buffer was used as running buffer in all experimental conditions. The test anti-TRBC2 antibodies (Table 1) were captured on flow cells 2, 3 and 4 to a density of 100-300 RU. Recombinant purified TRBC1 or TRBC2 at known concentrations were used as the ‘analyte’ and injected over the respective flow cells with 150s contact time and 300s dissociation at 30 μl/minute of flow rate. In each experiment, flow cell 1 was unmodified and used for reference subtraction. A ‘0 concentration’ sensorgram of buffer alone was used as a double reference subtraction to factor for drift. Data were fit to a 1:1 Langmuir binding model. Since a capture system was used, a local Rₘₐₓ parameter was used for the data fitting in each case.
# [2] = molecular target: T2, Recombinant purified TRBC1 (human, UniProt P01850 1-129, limits assumed); assay: SPR, IgG captured on anti-human Fc, TRBC1 as analyte
# T2 construct: Construct not described (may be a soluble TCR carrying TRBC1); also called TCR beta constant region 1; soluble recombinant biotinylated TRBC1
# Text: as §1
# T2 sequence (P01850 1-129 limits assumed): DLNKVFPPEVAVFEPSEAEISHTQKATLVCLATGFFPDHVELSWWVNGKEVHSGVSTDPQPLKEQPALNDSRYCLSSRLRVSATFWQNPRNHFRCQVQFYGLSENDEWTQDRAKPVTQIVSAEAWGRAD
# T1 sequence (A0A5B9 1-129 limits assumed): as the sequence (P01850 1-129 limits assumed) above, with N3K, K4N, E9K, F36Y counted along it
Binder,Kd [1] [µM],Kd [2] [µM],binding result [2]
"hJovi-1 variant IgG, VH T28K, Y32F, A100N, Y102F, N103M; VL N35K (antibody, V domains shown, IgG format) VH: QVQLVQSGAEVKKPGASVKVSCKASGYKFTGFVMHWVRQAPGQGLEWMGFINPYNDDIQSNERFRGRVTMTRDTSISTAYMELSRLRSDDTAVYYCARGNGFMFDGAYRFFDFWGQGTMVTVSS VL: DIVMTQSPLSLPVTPGEPASISCRSSQRLVHSNGKTYLHWYLQKPGQSPRLLIYRVSNRFPGVPDRFSGSGSGTDFTLKISRVEAEDVGVYYCSQSTHVPYTFGQGTKLEIK",0.909,9.31,
"hJovi-1 variant IgG, VH T28K, Y32F, A100N, Y102L, N103M; VL N35R (antibody, V domains shown, IgG format) VH: QVQLVQSGAEVKKPGASVKVSCKASGYKFTGFVMHWVRQAPGQGLEWMGFINPYNDDIQSNERFRGRVTMTRDTSISTAYMELSRLRSDDTAVYYCARGNGLMFDGAYRFFDFWGQGTMVTVSS VL: DIVMTQSPLSLPVTPGEPASISCRSSQRLVHSNGRTYLHWYLQKPGQSPRLLIYRVSNRFPGVPDRFSGSGSGTDFTLKISRVEAEDVGVYYCSQSTHVPYTFGQGTKLEIK",1.9,,no binding
"hJovi-1 variant IgG, VH T28K, Y32F, R98K, A100N; VL unmutated (antibody, V domains shown, IgG format) VH: QVQLVQSGAEVKKPGASVKVSCKASGYKFTGFVMHWVRQAPGQGLEWMGFINPYNDDIQSNERFRGRVTMTRDTSISTAYMELSRLRSDDTAVYYCAKGNGYNFDGAYRFFDFWGQGTMVTVSS VL: DIVMTQSPLSLPVTPGEPASISCRSSQRLVHSNGNTYLHWYLQKPGQSPRLLIYRVSNRFPGVPDRFSGSGSGTDFTLKISRVEAEDVGVYYCSQSTHVPYTFGQGTKLEIK",1.08,4.66,
"hJovi-1 variant IgG, VH T28K, Y32F, A100N; VL N35K (antibody, V domains shown, IgG format) VH: QVQLVQSGAEVKKPGASVKVSCKASGYKFTGFVMHWVRQAPGQGLEWMGFINPYNDDIQSNERFRGRVTMTRDTSISTAYMELSRLRSDDTAVYYCARGNGYNFDGAYRFFDFWGQGTMVTVSS VL: DIVMTQSPLSLPVTPGEPASISCRSSQRLVHSNGKTYLHWYLQKPGQSPRLLIYRVSNRFPGVPDRFSGSGSGTDFTLKISRVEAEDVGVYYCSQSTHVPYTFGQGTKLEIK",0.192,1,
"hJovi-1 variant IgG, VH T28K, Y32F, A100N, Y102L, N103W; VL N35R (antibody, V domains shown, IgG format) VH: QVQLVQSGAEVKKPGASVKVSCKASGYKFTGFVMHWVRQAPGQGLEWMGFINPYNDDIQSNERFRGRVTMTRDTSISTAYMELSRLRSDDTAVYYCARGNGLWFDGAYRFFDFWGQGTMVTVSS VL: DIVMTQSPLSLPVTPGEPASISCRSSQRLVHSNGRTYLHWYLQKPGQSPRLLIYRVSNRFPGVPDRFSGSGSGTDFTLKISRVEAEDVGVYYCSQSTHVPYTFGQGTKLEIK",1.51,,no binding
"hJovi-1 variant IgG, VH T28K, Y32F, A100N, Y102L, N103W; VL N35K (antibody, V domains shown, IgG format) VH: QVQLVQSGAEVKKPGASVKVSCKASGYKFTGFVMHWVRQAPGQGLEWMGFINPYNDDIQSNERFRGRVTMTRDTSISTAYMELSRLRSDDTAVYYCARGNGLWFDGAYRFFDFWGQGTMVTVSS VL: DIVMTQSPLSLPVTPGEPASISCRSSQRLVHSNGKTYLHWYLQKPGQSPRLLIYRVSNRFPGVPDRFSGSGSGTDFTLKISRVEAEDVGVYYCSQSTHVPYTFGQGTKLEIK",1.72,,no binding
"hJovi-1 variant IgG, VH T28K, Y32F, A100N, Y102F; VL unmutated (antibody, V domains shown, IgG format) VH: QVQLVQSGAEVKKPGASVKVSCKASGYKFTGFVMHWVRQAPGQGLEWMGFINPYNDDIQSNERFRGRVTMTRDTSISTAYMELSRLRSDDTAVYYCARGNGFNFDGAYRFFDFWGQGTMVTVSS VL: DIVMTQSPLSLPVTPGEPASISCRSSQRLVHSNGNTYLHWYLQKPGQSPRLLIYRVSNRFPGVPDRFSGSGSGTDFTLKISRVEAEDVGVYYCSQSTHVPYTFGQGTKLEIK",2.61,,no binding
"hJovi-1 variant IgG, VH T28K, Y32F, A100N, Y102F, N103M; VL N35R (antibody, V domains shown, IgG format) VH: QVQLVQSGAEVKKPGASVKVSCKASGYKFTGFVMHWVRQAPGQGLEWMGFINPYNDDIQSNERFRGRVTMTRDTSISTAYMELSRLRSDDTAVYYCARGNGFMFDGAYRFFDFWGQGTMVTVSS VL: DIVMTQSPLSLPVTPGEPASISCRSSQRLVHSNGRTYLHWYLQKPGQSPRLLIYRVSNRFPGVPDRFSGSGSGTDFTLKISRVEAEDVGVYYCSQSTHVPYTFGQGTKLEIK",0.968,7.91,
"hJovi-1 variant IgG, VH T28R, Y32F, A100N; VL unmutated (antibody, V domains shown, IgG format) VH: QVQLVQSGAEVKKPGASVKVSCKASGYRFTGFVMHWVRQAPGQGLEWMGFINPYNDDIQSNERFRGRVTMTRDTSISTAYMELSRLRSDDTAVYYCARGNGYNFDGAYRFFDFWGQGTMVTVSS VL: DIVMTQSPLSLPVTPGEPASISCRSSQRLVHSNGNTYLHWYLQKPGQSPRLLIYRVSNRFPGVPDRFSGSGSGTDFTLKISRVEAEDVGVYYCSQSTHVPYTFGQGTKLEIK",0.582,1.44,
"hJovi-1 variant IgG, VH T28K, Y32F, A100N; VL N35R (antibody, V domains shown, IgG format) VH: QVQLVQSGAEVKKPGASVKVSCKASGYKFTGFVMHWVRQAPGQGLEWMGFINPYNDDIQSNERFRGRVTMTRDTSISTAYMELSRLRSDDTAVYYCARGNGYNFDGAYRFFDFWGQGTMVTVSS VL: DIVMTQSPLSLPVTPGEPASISCRSSQRLVHSNGRTYLHWYLQKPGQSPRLLIYRVSNRFPGVPDRFSGSGSGTDFTLKISRVEAEDVGVYYCSQSTHVPYTFGQGTKLEIK",0.202,0.929,

# Continued, values first:
Kd [1] [µM],Kd [2] [µM],binding result [2],Binder
1.21,4.48,,"hJovi-1 variant IgG, VH Y27F, T28K, Y32F, A100N; VL unmutated (antibody, V domains shown, IgG format) VH: QVQLVQSGAEVKKPGASVKVSCKASGFKFTGFVMHWVRQAPGQGLEWMGFINPYNDDIQSNERFRGRVTMTRDTSISTAYMELSRLRSDDTAVYYCARGNGYNFDGAYRFFDFWGQGTMVTVSS VL: DIVMTQSPLSLPVTPGEPASISCRSSQRLVHSNGNTYLHWYLQKPGQSPRLLIYRVSNRFPGVPDRFSGSGSGTDFTLKISRVEAEDVGVYYCSQSTHVPYTFGQGTKLEIK"
0.883,2.4,,"hJovi-1 variant IgG, VH V2K, T28K, Y32F, A100N; VL unmutated (antibody, V domains shown, IgG format) VH: QKQLVQSGAEVKKPGASVKVSCKASGYKFTGFVMHWVRQAPGQGLEWMGFINPYNDDIQSNERFRGRVTMTRDTSISTAYMELSRLRSDDTAVYYCARGNGYNFDGAYRFFDFWGQGTMVTVSS VL: DIVMTQSPLSLPVTPGEPASISCRSSQRLVHSNGNTYLHWYLQKPGQSPRLLIYRVSNRFPGVPDRFSGSGSGTDFTLKISRVEAEDVGVYYCSQSTHVPYTFGQGTKLEIK"
1.6,5.11,,"hJovi-1 variant IgG, VH V2R, T28K, Y32F, A100N; VL unmutated (antibody, V domains shown, IgG format) VH: QRQLVQSGAEVKKPGASVKVSCKASGYKFTGFVMHWVRQAPGQGLEWMGFINPYNDDIQSNERFRGRVTMTRDTSISTAYMELSRLRSDDTAVYYCARGNGYNFDGAYRFFDFWGQGTMVTVSS VL: DIVMTQSPLSLPVTPGEPASISCRSSQRLVHSNGNTYLHWYLQKPGQSPRLLIYRVSNRFPGVPDRFSGSGSGTDFTLKISRVEAEDVGVYYCSQSTHVPYTFGQGTKLEIK"
0.646,2.81,,"hJovi-1 variant IgG, VH T28K, Y32F, A100N; VL N35F (antibody, V domains shown, IgG format) VH: QVQLVQSGAEVKKPGASVKVSCKASGYKFTGFVMHWVRQAPGQGLEWMGFINPYNDDIQSNERFRGRVTMTRDTSISTAYMELSRLRSDDTAVYYCARGNGYNFDGAYRFFDFWGQGTMVTVSS VL: DIVMTQSPLSLPVTPGEPASISCRSSQRLVHSNGFTYLHWYLQKPGQSPRLLIYRVSNRFPGVPDRFSGSGSGTDFTLKISRVEAEDVGVYYCSQSTHVPYTFGQGTKLEIK"
2.7,18.9,,"hJovi-1 variant IgG, VH T28K, Y32F, A100N, Y102F; VL N35R (antibody, V domains shown, IgG format) VH: QVQLVQSGAEVKKPGASVKVSCKASGYKFTGFVMHWVRQAPGQGLEWMGFINPYNDDIQSNERFRGRVTMTRDTSISTAYMELSRLRSDDTAVYYCARGNGFNFDGAYRFFDFWGQGTMVTVSS VL: DIVMTQSPLSLPVTPGEPASISCRSSQRLVHSNGRTYLHWYLQKPGQSPRLLIYRVSNRFPGVPDRFSGSGSGTDFTLKISRVEAEDVGVYYCSQSTHVPYTFGQGTKLEIK"
6.95,74.3,,"hJovi-1 variant IgG, VH Y27N, T28K, Y32F, A100N; VL unmutated (antibody, V domains shown, IgG format) VH: QVQLVQSGAEVKKPGASVKVSCKASGNKFTGFVMHWVRQAPGQGLEWMGFINPYNDDIQSNERFRGRVTMTRDTSISTAYMELSRLRSDDTAVYYCARGNGYNFDGAYRFFDFWGQGTMVTVSS VL: DIVMTQSPLSLPVTPGEPASISCRSSQRLVHSNGNTYLHWYLQKPGQSPRLLIYRVSNRFPGVPDRFSGSGSGTDFTLKISRVEAEDVGVYYCSQSTHVPYTFGQGTKLEIK"
3.06,21,,"hJovi-1 variant IgG, VH Y27W, T28K, Y32F, A100N; VL unmutated (antibody, V domains shown, IgG format) VH: QVQLVQSGAEVKKPGASVKVSCKASGWKFTGFVMHWVRQAPGQGLEWMGFINPYNDDIQSNERFRGRVTMTRDTSISTAYMELSRLRSDDTAVYYCARGNGYNFDGAYRFFDFWGQGTMVTVSS VL: DIVMTQSPLSLPVTPGEPASISCRSSQRLVHSNGNTYLHWYLQKPGQSPRLLIYRVSNRFPGVPDRFSGSGSGTDFTLKISRVEAEDVGVYYCSQSTHVPYTFGQGTKLEIK"
